Results reported in patent US20160194355A1 (MARUHA NICHIRO, published 2016).

What follows are binders tested against dipeptidyl peptidase-IV (DPPIV) (Human, recombinant; manufactured by Biomol) (Human, UniProt P27487 39-766, limits assumed) (assay: cell-based or functional assay).
Chain of dipeptidyl peptidase-IV (DPPIV) (Human, recombinant; manufactured by Biomol) (P27487 39-766 limits assumed): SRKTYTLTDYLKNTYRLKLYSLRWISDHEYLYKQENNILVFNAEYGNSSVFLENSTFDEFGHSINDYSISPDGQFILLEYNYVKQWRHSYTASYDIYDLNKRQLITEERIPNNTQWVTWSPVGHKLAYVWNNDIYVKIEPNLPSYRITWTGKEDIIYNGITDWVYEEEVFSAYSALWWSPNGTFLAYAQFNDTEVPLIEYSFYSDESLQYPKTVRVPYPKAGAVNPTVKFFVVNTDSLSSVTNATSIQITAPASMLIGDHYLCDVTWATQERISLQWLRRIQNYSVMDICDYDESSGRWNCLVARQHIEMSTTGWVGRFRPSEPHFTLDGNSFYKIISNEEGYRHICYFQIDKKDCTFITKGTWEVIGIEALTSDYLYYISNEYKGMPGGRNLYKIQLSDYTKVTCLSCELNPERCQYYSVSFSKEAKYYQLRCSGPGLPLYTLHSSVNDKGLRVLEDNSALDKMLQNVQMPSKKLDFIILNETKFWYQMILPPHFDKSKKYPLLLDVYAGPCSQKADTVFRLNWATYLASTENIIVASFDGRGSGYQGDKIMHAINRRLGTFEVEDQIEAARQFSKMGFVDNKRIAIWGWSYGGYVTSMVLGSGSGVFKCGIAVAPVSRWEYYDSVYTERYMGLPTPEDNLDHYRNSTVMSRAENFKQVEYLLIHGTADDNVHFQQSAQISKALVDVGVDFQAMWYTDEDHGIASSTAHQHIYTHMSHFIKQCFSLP
For VIP [Val-Ile-Pro (VIP)], the “IC50 Value (µM), DPPIV inhibitory activity (enzyme activity on H-Gly-Pro-AMC substrate, fluorescence)” value was > 100 µM.
VLP [Val-Leu-Pro (VLP)] was tested, and the “IC50 Value (µM), DPPIV inhibitory activity (enzyme activity on H-Gly-Pro-AMC substrate, fluorescence)” value was > 100 µM.
With VPL [Val-Pro-Leu (VPL)] the “IC50 Value (µM), DPPIV inhibitory activity (enzyme activity on H-Gly-Pro-AMC substrate, fluorescence)” value was 19 µM.
For IVP [Ile-Val-Pro (IVP)], the “IC50 Value (µM), DPPIV inhibitory activity (enzyme activity on H-Gly-Pro-AMC substrate, fluorescence)” value was > 100 µM.
For LPF [Leu-Pro-Phe (LPF)], the “IC50 Value (µM), DPPIV inhibitory activity (enzyme activity on H-Gly-Pro-AMC substrate, fluorescence)” value was 88 µM.
For IPI [Ile-Pro-Ile (IPI)], the “IC50 Value (µM), DPPIV inhibitory activity (enzyme activity on H-Gly-Pro-AMC substrate, fluorescence)” value was 3 µM.
For FP [Phe-Pro (FP)], the “IC50 Value (µM), DPPIV inhibitory activity (enzyme activity on H-Gly-Pro-AMC substrate, fluorescence)” value was > 100 µM.
For IPL [Ile-Pro-Leu (IPL)], the “IC50 Value (µM), DPPIV inhibitory activity (enzyme activity on H-Gly-Pro-AMC substrate, fluorescence)” value was 26 µM.
With FPVG [Phe-Pro-Val-Gly (FPVG)] the “IC50 Value (µM), DPPIV inhibitory activity (enzyme activity on H-Gly-Pro-AMC substrate, fluorescence)” value was 40 µM.
With WIP [Trp-Ile-Pro (WIP)] the “IC50 Value (µM), DPPIV inhibitory activity (enzyme activity on H-Gly-Pro-AMC substrate, fluorescence)” value was > 100 µM.
VPI [Val-Pro-Ile (VPI)] was tested, and the “IC50 Value (µM), DPPIV inhibitory activity (enzyme activity on H-Gly-Pro-AMC substrate, fluorescence)” value was 3 µM.
For LP [Leu-Pro (LP)], the “IC50 Value (µM), DPPIV inhibitory activity (enzyme activity on H-Gly-Pro-AMC substrate, fluorescence)” value was > 100 µM.
LPL [Leu-Pro-Leu (LPL)] was tested, and the “IC50 Value (µM), DPPIV inhibitory activity (enzyme activity on H-Gly-Pro-AMC substrate, fluorescence)” value was 82 µM.
WLP [Trp-Leu-Pro (WLP)] was tested, and the “IC50 Value (µM), DPPIV inhibitory activity (enzyme activity on H-Gly-Pro-AMC substrate, fluorescence)” value was > 100 µM.
In the case of IIP [Ile-Ile-Pro (IIP)], the “IC50 Value (µM), DPPIV inhibitory activity (enzyme activity on H-Gly-Pro-AMC substrate, fluorescence)” value is reported as > 100 µM.
LPVL [Leu-Pro-Val-Leu (LPVL)] was tested, and the “IC50 Value (µM), DPPIV inhibitory activity (enzyme activity on H-Gly-Pro-AMC substrate, fluorescence)” value was 46 µM.
IP [Ile-Pro (IP)] was tested, and the “IC50 Value (µM), DPPIV inhibitory activity (enzyme activity on H-Gly-Pro-AMC substrate, fluorescence)” value was 66 µM.
